Patent US20210340245A1 (Janssen / Centocor, published 2021)

B1: GenTNV148.26.12 (antibody, V domains shown)
VH: QVQLVESGGGVVQPGRSLRLSCAASGFIFSSYAMHWVRQAPGNGLEWVAFMSYDGSNKKYADSVKGRFTISRDNPKNTLYLQMNSLRAEDTAVYYCARDRGIAAGGNYYYYGMDVWGQGTTVTVSS
VL: EIVLTQSPATLSLSPGERATLSCRASQSVYSYLAWYQQKPGQAPRLLIYDASNRATGIPARFSGSGSGTDFTLTISSLEPEDFAVYYCQQRSNWPPFTFGPGTKVDIKR
B2: GenTNV86.14.34 (antibody, human IgG1, V domains shown)
VH: B1 VH
VL: EIVLTQSPATLSLSPGERATLSCRASQSVYSYLAWYQQKPGQAPRLLIYDASNRATGIPARFSGSGSGTDFTLTISSLEPEDFAVYYCQQRSNWPPFTFGPGTKVDIK
notes: Totally human IgG1 kappa, hybridoma-derived, tested in cell supernatant; Variable regions identical to TNV148; also called C417A (cell line code)

Columns and labels:
recombinant human TNFα [1] = target: T1, recombinant human TNFα (human, UniProt P01375 77-233, 125I label in the receptor-blocking assay); assay: inhibition of 125I-TNFα binding to plate-coated p55-sf2
T1 construct: also called huTNFα; tumor necrosis factor alpha
Procedure: 50:1 of p55-sf2 at 0.5 :g/ml in PBS was added to Optiplates to coat the wells during a one-hour incubation at 37° C. Serial dilutions of the eight TNV cell supernatants were prepared in 96-well round-bottom plates using PBS/0.1% BSA as diluent. […] The mixture was preincubated for one hour at RT. […] After 2 hrs at RT, Optiplates were washed three times with PBS-Tween. 100 :l of Microscint-20 was added and the cpm bound determined using the TopCount gamma counter.
The concentrations of the TNV mAbs in their respective cell supernatants were first determined by standard ELISA analysis for human IgG.

recombinant human TNFα [2] = target: T1, recombinant human TNFα; assay: competition radioligand assay: hybridoma supernatant preincubated with 125I-TNFα (5 ng/ml); binding of TNFα to plate-coated p55-sf2 read as cpm bound
recombinant human TNFα [3] = target: T1, recombinant human TNFα; assay: cell-based or functional assay

Binder	fold better at blocking TNF binding than TNV118 and TNV14 (recombinant human TNFα [1]) [fold]	IC50 (read off the curve) (recombinant human TNFα [2]) [ng/mL]	neutralizing TNFα bioactivity (recombinant human TNFα [3]) [fold]
B1	~4	~4	4
B2	~4	–	–
